Molecular target: von Willebrand factor (VWF) (Homo sapiens) (UniProt P04275)
Experiment: filter
Conditions: 2'-F pyrimidines; pool after 4 rounds convergent SELEX

## GGGAGGACGAUGCGGNNNNNNNNNNNNNNNNNNNNNNNNNNNNNNNNNNNNNNNNCAGACGACUCGCUGAGGAUCC [VWF convergent SELEX round 4 pool (R9)]
  Kd: 4.5 nM
